Data published in publication PMC9482650, “Quantitative fragmentomics allow affinity mapping of interactomes” (Nature Communications, 2022).
Values belong to the binder of their own block, whether it stands above or below them.

How the values were obtained:
Experiment in all cases: holdup assay
Design in all cases: key: below the threshold = too weak to quantify, mostly under pKd 3.1 to 4
APBA1_1, Q02410 = target: T1, APBA1_1, Q02410
T1 sequence (Q02410 651-752, limits assumed, looked up): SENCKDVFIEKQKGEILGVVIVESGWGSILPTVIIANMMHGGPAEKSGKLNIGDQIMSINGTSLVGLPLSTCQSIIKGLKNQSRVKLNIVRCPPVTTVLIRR

APBA1_2, Q02410 = target: T2, APBA1_2, Q02410
T2 sequence (Q02410 742-832, limits assumed, looked up): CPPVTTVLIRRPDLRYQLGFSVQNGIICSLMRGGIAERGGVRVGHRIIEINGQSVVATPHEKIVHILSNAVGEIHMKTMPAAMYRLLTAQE

DFNB31_2, Q9P202 = target: T3, DFNB31_2, Q9P202
T3 sequence (Q9P202 274-371, limits assumed, looked up): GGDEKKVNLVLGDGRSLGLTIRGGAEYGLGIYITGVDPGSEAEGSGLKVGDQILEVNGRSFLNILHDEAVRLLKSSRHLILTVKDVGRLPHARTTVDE

DLG4_3, P78352 = target: DLG4_3, P78352
FRMPD1, Q5SYB0 = target: T4, FRMPD1, Q5SYB0
T4 sequence (Q5SYB0 52-145, limits assumed, looked up): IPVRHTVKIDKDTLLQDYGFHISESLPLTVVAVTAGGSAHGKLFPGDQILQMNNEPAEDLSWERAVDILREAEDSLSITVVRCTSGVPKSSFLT

GIPC2, Q8TF65 = target: GIPC2, Q8TF65
GOPC, Q9HD26 = target: GOPC, Q9HD26
GRIP1_4, Q9Y3R0 = target: T5, GRIP1_4, Q9Y3R0
T5 sequence (Q9Y3R0 467-571, limits assumed, looked up): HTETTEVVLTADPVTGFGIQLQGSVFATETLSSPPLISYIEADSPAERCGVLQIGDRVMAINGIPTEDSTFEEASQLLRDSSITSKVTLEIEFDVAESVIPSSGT

GRIP1_5, Q9Y3R0 = target: T6, GRIP1_5, Q9Y3R0
T6 sequence (Q9Y3R0 568-668, limits assumed, looked up): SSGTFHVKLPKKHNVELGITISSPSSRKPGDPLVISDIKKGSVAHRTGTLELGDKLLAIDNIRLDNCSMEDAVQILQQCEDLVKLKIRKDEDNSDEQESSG

HTRA1, Q92743 = target: HTRA1, Q92743
HTRA3, P83110 = target: T7, HTRA3, P83110
T7 sequence (P83110 354-453, limits assumed, looked up): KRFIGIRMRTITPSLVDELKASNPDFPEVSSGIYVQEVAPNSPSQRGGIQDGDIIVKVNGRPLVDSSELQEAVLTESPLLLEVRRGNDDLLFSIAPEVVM

HTRA4, P83105 = target: T8, HTRA4, P83105
T8 sequence (P83105 378-476, limits assumed, looked up): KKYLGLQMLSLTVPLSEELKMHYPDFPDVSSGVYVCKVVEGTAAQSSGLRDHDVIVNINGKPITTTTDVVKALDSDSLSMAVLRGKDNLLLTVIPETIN

Inadl_1, Q8NI35 = target: Inadl_1, Q8NI35
Inadl_2, Q8NI35 = target: Inadl_2, Q8NI35
Inadl_3, Q8NI35 = target: Inadl_3, Q8NI35
Inadl_4, Q8NI35 = target: Inadl_4, Q8NI35
MAGI2_4, Q86UL8 = target: MAGI2_4, Q86UL8
MPDZ_10, O75970 = target: T9, MPDZ_10, O75970
T9 sequence (O75970 1624-1722, limits assumed, looked up): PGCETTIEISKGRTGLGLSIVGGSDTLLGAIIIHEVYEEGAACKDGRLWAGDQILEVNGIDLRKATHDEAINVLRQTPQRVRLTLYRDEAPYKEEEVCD

NHERF4_1, Q86UT5-2 = target: NHERF4_1, Q86UT5-2
NOS1, P29475 = target: NOS1, P29475
PDZRN3_1, Q9UPQ7 = target: T10, PDZRN3_1, Q9UPQ7
T10 sequence (Q9UPQ7 244-349, limits assumed, looked up): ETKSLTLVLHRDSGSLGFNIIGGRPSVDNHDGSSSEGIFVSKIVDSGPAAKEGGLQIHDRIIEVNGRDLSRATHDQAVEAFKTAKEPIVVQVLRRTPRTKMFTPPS

SCRIB_2, Q14160 = target: SCRIB_2, Q14160
SCRIB_3, Q14160 = target: SCRIB_3, Q14160
TIAM2, Q8IVF5 = target: T11, TIAM2, Q8IVF5
T11 sequence (Q8IVF5 885-986, limits assumed, looked up): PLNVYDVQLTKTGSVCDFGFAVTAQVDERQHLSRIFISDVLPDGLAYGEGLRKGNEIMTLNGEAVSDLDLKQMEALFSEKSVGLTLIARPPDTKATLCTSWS

TJP2_1, Q9UDY2 = target: TJP2_1, Q9UDY2
TJP3_3, O95049 = target: T12, TJP3_3, O95049
T12 sequence (O95049 375-456, limits assumed, looked up): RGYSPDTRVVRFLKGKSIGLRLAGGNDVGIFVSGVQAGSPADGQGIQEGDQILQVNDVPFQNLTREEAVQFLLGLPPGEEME

[1] = plain residues with an end cap or a label only (N-terminal biotin on a linker: ahx)
[2] = plain residues with an end cap or a label only (N-terminal biotin on a linker: ttds)
[3] = plain residues with an end cap or a label only (N-terminal biotin on a linker: ado-ado)

Sequence of TJP2_1, Q9UDY2 (Q9UDY2 24-128): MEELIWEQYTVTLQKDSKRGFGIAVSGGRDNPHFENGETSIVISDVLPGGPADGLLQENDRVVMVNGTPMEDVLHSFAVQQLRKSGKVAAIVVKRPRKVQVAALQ
Sequence of NOS1, P29475 (P29475 9-101): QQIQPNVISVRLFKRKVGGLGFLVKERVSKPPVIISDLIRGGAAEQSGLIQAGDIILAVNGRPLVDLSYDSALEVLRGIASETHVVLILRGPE
Sequence of GIPC2, Q8TF65 (Q8TF65 112-203): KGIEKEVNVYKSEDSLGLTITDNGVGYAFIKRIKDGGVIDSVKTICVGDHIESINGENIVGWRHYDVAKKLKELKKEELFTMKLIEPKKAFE
Sequence of Inadl_2, Q8NI35 (Q8NI35 238-335): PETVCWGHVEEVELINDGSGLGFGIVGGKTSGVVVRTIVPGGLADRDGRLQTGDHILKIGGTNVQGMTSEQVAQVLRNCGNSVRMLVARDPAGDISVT
Sequence of SCRIB_2, Q14160 (Q14160 857-960): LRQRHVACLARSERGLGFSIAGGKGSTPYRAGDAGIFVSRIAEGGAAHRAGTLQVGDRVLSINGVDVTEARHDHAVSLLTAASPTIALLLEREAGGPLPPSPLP
Sequence of Inadl_4, Q8NI35 (Q8NI35 547-651): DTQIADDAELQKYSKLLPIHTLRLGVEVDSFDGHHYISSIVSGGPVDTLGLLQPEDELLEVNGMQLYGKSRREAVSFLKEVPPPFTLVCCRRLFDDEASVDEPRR
Sequence of Inadl_1, Q8NI35 (Q8NI35 113-229): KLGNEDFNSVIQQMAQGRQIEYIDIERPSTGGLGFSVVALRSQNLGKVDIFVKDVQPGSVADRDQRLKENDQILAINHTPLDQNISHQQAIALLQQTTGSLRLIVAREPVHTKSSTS
Sequence of NHERF4_1, Q86UT5-2 (Q86UT5 other isoform, or with tags, fused parts or gaps): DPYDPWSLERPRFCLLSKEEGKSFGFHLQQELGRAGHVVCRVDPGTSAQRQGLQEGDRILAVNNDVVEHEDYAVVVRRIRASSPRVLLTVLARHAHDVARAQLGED
Sequence of SCRIB_3, Q14160 (Q14160 999-1103): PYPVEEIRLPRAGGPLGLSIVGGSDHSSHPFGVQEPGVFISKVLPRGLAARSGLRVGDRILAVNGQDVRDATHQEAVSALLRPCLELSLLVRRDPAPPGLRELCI
Sequence of DLG4_3, P78352 (P78352 306-403): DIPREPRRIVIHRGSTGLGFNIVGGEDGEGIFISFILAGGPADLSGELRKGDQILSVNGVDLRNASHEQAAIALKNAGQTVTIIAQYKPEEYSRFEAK
Sequence of HTRA1, Q92743 (Q92743 360-477): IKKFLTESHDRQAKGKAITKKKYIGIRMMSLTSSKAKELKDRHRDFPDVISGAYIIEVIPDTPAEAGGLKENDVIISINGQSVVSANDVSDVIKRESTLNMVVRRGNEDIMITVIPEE
Sequence of MAGI2_4, Q86UL8 (Q86UL8 772-865): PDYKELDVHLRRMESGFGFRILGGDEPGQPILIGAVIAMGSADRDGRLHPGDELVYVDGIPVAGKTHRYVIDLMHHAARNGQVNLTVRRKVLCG
Sequence of Inadl_3, Q8NI35 (Q8NI35 359-469): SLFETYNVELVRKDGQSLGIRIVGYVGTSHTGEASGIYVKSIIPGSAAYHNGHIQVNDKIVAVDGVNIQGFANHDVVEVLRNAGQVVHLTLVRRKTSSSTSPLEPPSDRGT

- pKd (APBA1_1, Q02410; [1]): below the threshold
- pKd (APBA1_2, Q02410; [1]): 4.33
- pKd (DFNB31_2, Q9P202; [1]): below the threshold
- pKd (DLG4_3, P78352; [1]): below the threshold
- pKd (FRMPD1, Q5SYB0; [1]): below the threshold
- pKd (GIPC2, Q8TF65; [1]): below the threshold
- pKd (GOPC, Q9HD26; [1]): 3.75
- pKd (GRIP1_4, Q9Y3R0; [1]): below the threshold
- pKd (GRIP1_5, Q9Y3R0; [1]): below the threshold
- pKd (HTRA1, Q92743; [1]): 4.61
- pKd (HTRA3, P83110; [1]): 3.62
- pKd (HTRA4, P83105; [1]): 4
- pKd (Inadl_1, Q8NI35; [1]): below the threshold
- pKd (Inadl_2, Q8NI35; [1]): below the threshold
- pKd (Inadl_3, Q8NI35; [1]): 3.62
- pKd (Inadl_4, Q8NI35; [1]): below the threshold
- pKd (MAGI2_4, Q86UL8; [1]): below the threshold
- pKd (MPDZ_10, O75970; [1]): 3.6
- pKd (NHERF4_1, Q86UT5-2; [1]): 3.47
- pKd (NOS1, P29475; [1]): below the threshold
- pKd (PDZRN3_1, Q9UPQ7; [1]): 3.85
- pKd (SCRIB_2, Q14160; [1]): below the threshold
- pKd (SCRIB_3, Q14160; [1]): 4.29
- pKd (TIAM2, Q8IVF5; [1]): below the threshold
- pKd (TJP2_1, Q9UDY2; [1]): below the threshold
- pKd (TJP3_3, O95049; [1]): below the threshold
Binder: TIVSWPGTFL [LNX1, Q8TBB1]

- pKd (APBA1_1, Q02410; [2]): below the threshold
- pKd (APBA1_2, Q02410; [2]): 3.8
- pKd (DFNB31_2, Q9P202; [2]): 4.74
- pKd (DLG4_3, P78352; [2]): 3.55
- pKd (FRMPD1, Q5SYB0; [2]): below the threshold
- pKd (GIPC2, Q8TF65; [2]): 3.78
- pKd (GOPC, Q9HD26; [2]): 3.95
- pKd (GRIP1_4, Q9Y3R0; [2]): below the threshold
- pKd (GRIP1_5, Q9Y3R0; [2]): below the threshold
- pKd (HTRA1, Q92743; [2]): 4.03
- pKd (HTRA3, P83110; [2]): 3.76
- pKd (HTRA4, P83105; [2]): below the threshold
- pKd (Inadl_1, Q8NI35; [2]): below the threshold
- pKd (Inadl_2, Q8NI35; [2]): below the threshold
- pKd (Inadl_3, Q8NI35; [2]): below the threshold
- pKd (Inadl_4, Q8NI35; [2]): below the threshold
- pKd (MAGI2_4, Q86UL8; [2]): below the threshold
- pKd (MPDZ_10, O75970; [2]): below the threshold
- pKd (NHERF4_1, Q86UT5-2; [2]): below the threshold
- pKd (NOS1, P29475; [2]): 3.82
- pKd (PDZRN3_1, Q9UPQ7; [2]): 4.18
- pKd (SCRIB_2, Q14160; [2]): 3.56
- pKd (SCRIB_3, Q14160; [2]): 4.67
- pKd (TIAM2, Q8IVF5; [2]): below the threshold
- pKd (TJP2_1, Q9UDY2; [2]): 4.43
- pKd (TJP3_3, O95049; [2]): below the threshold
Binder: QFQYAKESYI [TAGAP, Q8N103]

- pKd (APBA1_1, Q02410; [3]): below the threshold
- pKd (APBA1_2, Q02410; [3]): 4.64
- pKd (DFNB31_2, Q9P202; [3]): below the threshold
- pKd (DLG4_3, P78352; [3]): below the threshold
- pKd (FRMPD1, Q5SYB0; [3]): below the threshold
- pKd (GIPC2, Q8TF65; [3]): 3.6
- pKd (GOPC, Q9HD26; [3]): 4.17
- pKd (GRIP1_4, Q9Y3R0; [3]): below the threshold
- pKd (GRIP1_5, Q9Y3R0; [3]): below the threshold
- pKd (HTRA1, Q92743; [3]): 3.73
- pKd (HTRA3, P83110; [3]): below the threshold
- pKd (HTRA4, P83105; [3]): 4.15
- pKd (Inadl_1, Q8NI35; [3]): below the threshold
- pKd (Inadl_2, Q8NI35; [3]): below the threshold
- pKd (Inadl_3, Q8NI35; [3]): below the threshold
- pKd (Inadl_4, Q8NI35; [3]): below the threshold
- pKd (MAGI2_4, Q86UL8; [3]): 3.58
- pKd (MPDZ_10, O75970; [3]): 3.73
- pKd (NHERF4_1, Q86UT5-2; [3]): 4.53
- pKd (NOS1, P29475; [3]): 3.62
- pKd (PDZRN3_1, Q9UPQ7; [3]): 3.53
- pKd (SCRIB_2, Q14160; [3]): 3.77
- pKd (SCRIB_3, Q14160; [3]): 3.59
- pKd (TIAM2, Q8IVF5; [3]): below the threshold
- pKd (TJP2_1, Q9UDY2; [3]): 3.72
- pKd (TJP3_3, O95049; [3]): below the threshold
Binder: TETASVCTKV [SLC23A1, Q9UHI7]
